Test in all cases: crystal structure; VP1 pentamers (His-tag cleaved) at 3-4 mg/mL, hanging drop vapor diffusion at 20°C, 10-18% PEG 3.350, 0.1 M HEPES pH 7.5, 0.1-0.3 M LiCl; self-association of VP1 into a pentamer
In assay [1] the target is BK polyomavirus VP1 mutant E73A (VP1 pentamer, residues 30-300) (BK polyomavirus) (UniProt P03088).
The target in assay [2] is BK polyomavirus VP1 mutant E73Q (VP1 pentamer, residues 30-300) (BK polyomavirus) (UniProt P03088).
The target in assay [3] is BK polyomavirus VP1 mutant N-Q, K69N E82Q (VP1 pentamer, residues 30-300) (BK polyomavirus) (UniProt P03088).
Assay [4] addresses BK polyomavirus VP1 mutant VQQ, A72V E73Q E82Q (VP1 pentamer, residues 30-300) (BK polyomavirus) (UniProt P03088).

Stoichiometry N data for four substances are collected here from paper PMC9989821.

For the substance “BK polyomavirus VP1 mutant E73A (VP1 pentamer, residues 30-300) (from UniProt P03088 30-300) (domain or fragment)”, in assay [1], the stoichiometry N is 5.

Consider “BK polyomavirus VP1 mutant E73Q (VP1 pentamer, residues 30-300) (from UniProt P03088 30-300) (domain or fragment)”, for which the stoichiometry N in assay [2] came to 5.

Substance “BK polyomavirus VP1 mutant N-Q, K69N E82Q (VP1 pentamer, residues 30-300) (from UniProt P03088 30-300) (domain or fragment)” displayed a stoichiometry N in assay [3] of 5.

Turning to “BK polyomavirus VP1 mutant VQQ, A72V E73Q E82Q (VP1 pentamer, residues 30-300) (from UniProt P03088 30-300) (domain or fragment)”, the stoichiometry N in assay [4] was determined as 5.
